The assay addresses T1, Purified Arp2/3 complex.
T1 construct: Used in fluorescence anisotropy, pyrene-actin and TIRF assays
In words: fluorescence anisotropy, competition with labelled ArpinA bound to purified Arp2/3 complex. (In fluorescence polarisation assays a small probe gives low polarisation when free and higher when bound to something large.)

Drawing on patent US20160199445A1 (CENTRE NATIONAL DE LA RECHERCHE SCIENTIFIQUE, published 2016), this text covers Kd for one molecule.

B1: ArpinA peptide (residues 211-226 of full length Arpin), unlabelled synthetic peptide (peptide)
peptide: EIREQGDGAEDEEWDD
notes: Purchased from Proteogenix; also called Arpin Acidic peptide; Acidic peptide
One may read the Kd as the equilibrium constant for the complex coming apart. Read a low Kd as tighter binding. In the case of B1, the Kd turned out to be 1.03 µM.
